Test results taken from paper PMC2965120, “Ribonucleoprotein Particles Containing Non-Coding Y RNAs, Ro60, La and Nucleolin Are Not Required for Y RNA Function in DNA Replication”.

Columns and labels:
Ro60;La = Ro60;La (human;human, UniProt P10155;P05455 1-538;1-408, |); assay: EMSA; 10-fold molar excess competitor tRNA; RNA:Ro60:La 1:4:4; super-shift, ternary complex; 10 mM Tris-HCl pH 7.5, 100 mM NaCl, 3 mM MgCl2, 1 mM DTT, 10-fold molar excess tRNA, 80 ng hY1 RNA, 15 min at 37 C; native 8% PAGE at 4 C; details: protein: recombinant;recombinant; copies: 1;1; label: 32P (alpha-32P UTP, internal)
Ro60;La, sequence (P10155 whole entry, one chain of several): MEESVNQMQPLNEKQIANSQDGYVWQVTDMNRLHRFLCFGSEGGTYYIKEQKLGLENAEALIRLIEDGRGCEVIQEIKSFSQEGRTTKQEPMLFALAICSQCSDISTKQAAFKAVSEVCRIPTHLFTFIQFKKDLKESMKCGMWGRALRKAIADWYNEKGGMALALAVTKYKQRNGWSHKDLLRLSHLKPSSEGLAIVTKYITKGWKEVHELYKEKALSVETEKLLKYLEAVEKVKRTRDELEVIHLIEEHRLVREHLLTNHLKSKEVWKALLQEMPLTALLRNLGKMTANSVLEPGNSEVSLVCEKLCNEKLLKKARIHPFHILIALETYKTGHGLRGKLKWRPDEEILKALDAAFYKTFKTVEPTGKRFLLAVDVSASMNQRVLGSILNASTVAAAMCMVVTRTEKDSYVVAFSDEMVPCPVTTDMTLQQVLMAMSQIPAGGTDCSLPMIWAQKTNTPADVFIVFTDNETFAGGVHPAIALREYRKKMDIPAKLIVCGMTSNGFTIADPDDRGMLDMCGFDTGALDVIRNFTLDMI

Ro60 = Ro60 (human, UniProt P10155 1-538); assay: EMSA; 10-fold molar excess competitor tRNA; about 30-40% of RNA shifted at 4:1 protein:RNA; 10 mM Tris-HCl pH 7.5, 100 mM NaCl, 3 mM MgCl2, 1 mM DTT, 10-fold molar excess tRNA, 80 ng hY1 RNA, 15 min at 37 C; native 8% PAGE at 4 C; details: protein: recombinant; tags: poly-His (pET28a); label: 32P (alpha-32P UTP, internal)
Ro60, sequence (P10155 whole entry): as the sequence (P10155 whole entry, one chain of several) above

La = biological target: T1, La (human, UniProt P05455 1-408); assay: EMSA; 10-fold molar excess competitor tRNA; >90% of RNA shifted at 1:1 protein:RNA; 10 mM Tris-HCl pH 7.5, 100 mM NaCl, 3 mM MgCl2, 1 mM DTT, 10-fold molar excess tRNA, 80 ng hY1 RNA, 15 min at 37 C; native 8% PAGE at 4 C; details: protein: recombinant; label: 32P (alpha-32P UTP, internal)
T1 sequence: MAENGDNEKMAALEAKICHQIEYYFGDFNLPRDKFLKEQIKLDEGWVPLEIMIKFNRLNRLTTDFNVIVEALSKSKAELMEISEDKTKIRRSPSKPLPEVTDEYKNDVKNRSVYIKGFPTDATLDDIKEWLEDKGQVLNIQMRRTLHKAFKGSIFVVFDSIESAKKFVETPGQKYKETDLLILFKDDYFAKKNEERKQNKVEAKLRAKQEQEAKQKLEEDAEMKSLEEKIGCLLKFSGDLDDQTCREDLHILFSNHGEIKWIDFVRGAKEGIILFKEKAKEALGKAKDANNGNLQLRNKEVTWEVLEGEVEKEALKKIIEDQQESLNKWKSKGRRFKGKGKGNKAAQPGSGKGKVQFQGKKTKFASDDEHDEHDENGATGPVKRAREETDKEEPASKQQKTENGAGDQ

Measured: binding result

B1: hY1 RNA (structured_RNA)
RNA: GGCUGGUCCGAAGGUAGUGAGUUAUCUCAAUUGAUUGUUCACAGUCAGUUACAGAUCGAACUCCUUGUUCUACUCUUUCCCCCCUUCUCACUACUGCACUUGACUAGUCUUU
binds: all assays above
